Results published in PMC4336380, “Promiscuous Binding of Karyopherinβ1 Modulates FG Nucleoporin Barrier Function and Expedites NTF2 Transport Kinetics” (Biophysical Journal, 2015).

Biological target: T1, wild-type rat NTF2 (nuclear transport factor 2) (rat, UniProt P61972 1-127)
T1 construct: also called wild-type NTF2; source: E. coli BL21(DE3) CodonPlus RIL, purified (NiNTA agarose, gel filtration Superdex S-75)
Assay: SPR; Biacore T100, 25°C, PBS pH 7.2; Nsp1p fragment grafted on gold; multivalent kinetic analysis: discrete distribution of kinetic states (kon,i, koff,i), interaction maps averaged over ~10 sensorgrams
Conditions: both partners purified

T1 sequence (P61972 whole entry): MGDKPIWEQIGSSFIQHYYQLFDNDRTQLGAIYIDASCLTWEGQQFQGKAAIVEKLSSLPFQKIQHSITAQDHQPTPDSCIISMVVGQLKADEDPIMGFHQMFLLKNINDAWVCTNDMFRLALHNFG

B1: Nsp1p-5FF (yeast Nsp1p FG fragment, residues 262-359; 1x FG, 4x FSFG) (domain or fragment)
chain: not shown
notes: Nsp1p, yeast, FG fragment residues 262-359 (1x FG, 4x FSFG), in a modified pET30a vector; Grafted to the gold SPR sensor through the added N-terminal Cys residues; The vector carries a TEV site in place of the thrombin site; no cleavage is described; source: E. coli BL21(DE3) CodonPlus RIL, purified (NiNTA agarose, Superdex S-75); not shown: Cys-Cys-Trp (after the initiator Met), N-terminal, …
B1: binds.
